Laboratory results taken from PMC9860449.

Columns and labels:
[1] = molecular target: FUS released from 6xHis-MBP-FUS by TEV protease (UniProt P35637)
[2] = molecular target: FUS^WT released from GST-TEV-FUS by TEV protease (UniProt P35637)
[3] = molecular target: FUS^WT released from GST-TEV-FUS by TEV protease (UniProt P35637); remark: listed apart in the source

Row | reduction of number and total area of preformed FUS:RNA droplets (1 μM FUS, 1 μM U40 RNA; 0.75 μM Kapβ2, 2 h) [1] [%] | FUS fibrillization left (normalised turbidity at 395 nm; 3 μM FUS, TEV protease) at the highest concentration of H1-H13 tested [2] [%] | reduction of turbidity of preformed FUS fibrils after 80 min at the highest concentration of H1-H13 tested [3] [%] | reduction of number and total area of preformed FUS:RNA droplets (1 μM FUS, 1 μM U40 RNA; 0.75 μM H1-H13, 2 h) [1] [%] | Substance
1 | 100 |  |  |  | Karyopherin-β2 (Kapβ2), full-length, wild type (from UniProt Q92973-2 1-890) (natural protein)
2 |  | 40 | 50 | 44 | Kapβ2 H1-H13 (residues 1–604) (from UniProt Q92973-2 1-604) (domain or fragment)
